Assay results taken from patent US20150024957, “Methods and Devices for Detection and Measurement of Analytes” (THE UNIVERSITY OF TOLEDO, published 2015).

B1: APT2 (34-mer thrombin aptamer) (ssDNA)
DNA: CTATCAGTCCGTGGTAGGGCAGGTTGGGGTGACT
modifications: 5'-NH2-(CH2)6
B2: APT1 (15-mer thrombin aptamer) (ssDNA)
DNA: GGTTGGTGTGGTTGG
modifications: 5'-NH2-(CH2)6

Biological target: Bovine serum albumin (BSA) (Bos taurus, UniProt P02769 P02769:25-607)
Assay: SPR; 400 nM BSA; minimal effect on response of aptamer sensor
Conditions: tags: Sigma Aldrich
Method: Non-coated (i.e., no gold) SensiQ base sensors were custom modified with the developed gold based SPR sensing surfaces. Specifically, freshly prepared aptamer-immobilized gold substrates were coupled to the stripped sensors with index matching optical oil. This was followed by then loading of 100 μL 1 M ethanolamine (EA) at a flow rate of 20 μL/min to block the non-occupied MPA sites activated by the EDC/NHS, followed by an injection of 100 μL of 100 mM phosphoric acid (PPA) at 50 μL/min to remove the non-specific binding. The running buffer was 0.1 M pH 7.2 PBS. The sensor was first normalized with the buffer for 10 min, then the thrombin sample (25 μL) at concentrations of 5 nM, 25 nM, 50 nM, 250 nM 500 nM, 1000 nM, 2000 nM were loaded at 5 μL/min. Samples with BSA were all prepared with 400 nM BSA. All data was recorded at 290 s, 300 s, and 310 s after the sample injection and averaged. Sensor regeneration was performed by the injection of 100 μL PPA at 50 μL/min followed by washing with the running buffer.
Adding BSA to the sample had minimal effect on the SPR response for the aptamer modified sensors, indicating a good selectivity of the sensor toward thrombin. This is in contrast to the bare Au sensor, which experienced a significant change between the thrombin samples with, and without, BSA. […]

Sequence of Bovine serum albumin (BSA) (P02769 25-607, one chain of several): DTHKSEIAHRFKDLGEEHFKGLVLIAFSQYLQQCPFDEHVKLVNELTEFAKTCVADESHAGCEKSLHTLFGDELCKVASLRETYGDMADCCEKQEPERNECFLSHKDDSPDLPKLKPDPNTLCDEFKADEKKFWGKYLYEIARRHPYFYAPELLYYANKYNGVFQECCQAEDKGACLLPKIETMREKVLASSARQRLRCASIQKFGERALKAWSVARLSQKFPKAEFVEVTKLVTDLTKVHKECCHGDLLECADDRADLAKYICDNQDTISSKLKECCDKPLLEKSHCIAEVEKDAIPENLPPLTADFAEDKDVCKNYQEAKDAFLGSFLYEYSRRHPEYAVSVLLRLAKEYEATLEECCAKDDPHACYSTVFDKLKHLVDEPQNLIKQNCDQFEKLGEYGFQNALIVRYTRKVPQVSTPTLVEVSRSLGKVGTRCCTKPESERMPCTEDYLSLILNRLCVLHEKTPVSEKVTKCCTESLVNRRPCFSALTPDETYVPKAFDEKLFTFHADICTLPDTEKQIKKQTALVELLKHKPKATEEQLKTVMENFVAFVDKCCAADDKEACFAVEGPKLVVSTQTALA

| Binder | binding result |
| --- | --- |
| B1 | no binding |
| B2 | no binding |
